Experiment [1] addresses T1, ERα (Homo sapiens, UniProt P03372).
T1 sequence (P03372 1-595): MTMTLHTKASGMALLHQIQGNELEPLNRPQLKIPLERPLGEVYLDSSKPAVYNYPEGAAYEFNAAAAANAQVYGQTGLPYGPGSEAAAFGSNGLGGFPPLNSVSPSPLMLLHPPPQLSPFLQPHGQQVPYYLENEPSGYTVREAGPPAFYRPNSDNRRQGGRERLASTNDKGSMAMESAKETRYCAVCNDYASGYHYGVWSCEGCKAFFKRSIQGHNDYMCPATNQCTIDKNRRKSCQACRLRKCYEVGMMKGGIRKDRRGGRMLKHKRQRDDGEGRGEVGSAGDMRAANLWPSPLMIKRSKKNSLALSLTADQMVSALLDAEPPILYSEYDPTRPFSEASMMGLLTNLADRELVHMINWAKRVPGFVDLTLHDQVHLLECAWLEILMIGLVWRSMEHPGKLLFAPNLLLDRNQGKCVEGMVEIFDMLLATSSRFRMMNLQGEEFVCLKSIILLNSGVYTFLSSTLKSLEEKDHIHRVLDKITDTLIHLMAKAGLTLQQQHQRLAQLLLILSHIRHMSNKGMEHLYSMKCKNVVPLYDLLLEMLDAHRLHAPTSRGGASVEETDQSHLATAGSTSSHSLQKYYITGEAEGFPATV
In words: Stably transfected ECV304/T24-ERα-ELAM-HMG and -VCAM3 clones, luciferase activity. Conditions: stable ECV304/T24-ERα clone, IL1 induced.

Experiment [2] concerns the target T1, ERα. Briefly: NF-κB-responsive reporters in ECV304-ERα cells, IL-1 induced. Particulars: ECV304-ERα cells (A). The format is cell-based. On the set-up: expressed in transfected cells. The source says:
This example describes an assay, based on the E-selectin or VCAM promoter in combination with ERα in the T24/ECV cell line. Note that for the ER/NF-κB transrepression assay the ECV304 cell line was used, which was believed to be the only endothelial cell line available that was suitable for producing stable ERα expressing clones. At a later stage ATCC reported that the ECV304 cells were no endothelial cells but, instead, were T24 bladder carcinoma cells. In order to enhance the cytokine induction and amount of repression by estrogens, multiple copies of NF-κB responsive regions of the E-Selectin and VCAM promoters were used to construct new reporters named ELAM1a, ELAM2, ELAM-HMG, VCAM1-2, VCAM2, and VCAM3 (for reporter details see appendix 1).
ECV304-ERα cells stably express ERα and endogenous c-Rel, whereas COS cells were transiently transfected with ERα, and, where indicated, c-Rel. Both cell types were co-transfected with the indicated E-selectin (ELAM) or VCAM promoter derived reporters.
Human osteosarcoma U-2 OS (HTB-96), monkey kidney COS-1 (CRL-1650) and human ECV304 (CRL-1998) cells have been obtained from ATCC (American Type Culture collection). ECV304 cells were sold by ATCC as human endothelial cells, however at a later stage ATCC informed us that this cell line was in fact the human bladder epithelial carcinoma cell line T24. Therefore, these cells are called T24/ECV in this report. ECV304/T24(-ERα), U-2 OS and COS-7 cells were grown in a 1:1 mixture of phenol red free Dulbecco's modified medium (DMEM) and Ham's F12 medium (=M505), supplemented with 10% fetal calf serum (FCS). Experiments were performed in M505+10% FCTS (fetal calf serum treated with dextran-coated charcoal to deplete serum from steroid activity).
The six NF-κB responsive reporters pHGL3-ELAM 1a, pHGL3-ELAM 2, pHGL3-ELAM HMG, pHGL3-VCAM 1-2, pHGL3-VCAM 2 and pHGL3-VCAM 3 (plasmid nr. 1921-1926 respectively) were constructed by ligating annealed primers in the Kpn I and Sac I sites of pHGL3-TATA. The primers were based on the NF-κB-RE sequences in the ELAM and the VCAM promoter (see Appendix 1). Several copies of the NF-κB-RE's were cloned in order the gain a higher absolute luciferase signal. The ELAM HMG construct contains a double repeat, while the other constructs contain three NF-κB -RE's. For primer and reporter sequences, see appendix 1.
For transient transfections, cells were seeded in 6-well plates (2.10^5 cells/well). After two or three days the cells were transfected with reporter, expression vectors and β-galactosidase control vector. Two different experimental settings were used. For testing transrepression of IL-1β induced promoter activity, cells were transfected with 1 μg reporter construct, 1 μg expression vector (containing either ERα, ERβ or GR), and 0.25 μg of β-galactosidase control plasmid. For testing transrepression in combination with c-Rel or ReLA overexpression, cells were transfected with 1 μg reporter construct, 1 μg expression vector (containing either ERα, ERβ or GR) and 0.1 or 1.0 μg expression vector containing c-Rel or RelA and 0.25 μg of β-galactosidase control vector. Equivalent amounts of DNA were obtained by adding the appropriate expression vector that lacks an insert. Transient transfection was performed using lipofectin reagent (Life Technologies). […] The transfected cells were incubated overnight with test compounds prior to cell lysis. Measurement of luciferase and P-galactosidase activity were performed using respectively the luciferase assay system (Promega) and Galacto-light plus (Tropix) according to the manufacturers' protocols and measured on the Victor 1420 multilabel counter, Wallac.

Experiment [3] addresses T1, ERα. Briefly: Transrepression of IL-1β induced NF-κB responsive promoter-reporters, U-2 OS transiently transfected with ERα. On the set-up: expressed in transfected cells. It counts as cell-based. Particulars: ER alpha transfected, IL-1 induced. The source says:
pKCRE-ERα, pKCRE-ERβ and pNGV1-GR contain the human wild-type estrogen receptor α (ERα), ERβ or GR respectively under control of the SV40 promoter. The pCMV4-c-Rel expression vector was produced by cloning of the coding region of c-Rel into the pCMV4 vector (Andersson et al., 1989). pGL3-ELAM, pGL3-VCAM and pGL3-ICAM have been constructed based on PCR using the sequences as outlined in appendix 1. The luciferase reporter plasmid 3*NF-κB-TK was constructed by inserting three repeats of the NF-κB binding site from the ICAM promoter (van de Stolpe et al.; J. Biol Chem. 269: 6185-6192. 1994) in front of the herpes simplex virus thymidine kinase (HSV-TK) promoter. The TK promoter was cloned into the Bgl II-site of pGL3-basic (Promega). The triple repeat of NF-κB binding sites was constructed by annealing the oligonucleotide primers 5′-[…]-3′ and 5′-[…]-3′ followed by PRC amplification and subcloning in the pCR™2.1 vector. The insert was excised using HindIII, blunted with Klenow DNA polymerase and ligated into the SmaI site of pGL3-tk-luc. 4xERE-TATA Luc (plasmid nr. 460) contains four repeats of an estrogen responsive element followed by a TATA box and a luciferase gene. The pSV-β-Galactosidase (pSVβ) control vector (Promega) served as a positive control vector for monitoring transfection efficiencies of mammalian cells. The SV40 early promoter and enhancer drive transcription of the LacZ gene which encodes the β-Galactosidase enzyme. The yeast 2-hybrid constructs pGAD424-ERα, pGAD424-ERαdAB and pGAD424-ERβ were constructed by cloning respectively the human ERα, the ERα without the AB domain and the human ERβ cDNA in pGAD424. pGAD424-ERα LBD was constructed by cloning the LBD of ERα, obtained by PCR, in the EcoRI and SalI sites of pGAD424 vector. pGBT9-c-Rel was constructed by cloning the c-Rel fragment, obtained by PCR on pCMV4-c-Rel in the EcoRI and BamHI sites of pGBT9. The p65/RelA cDNA was obtained by PCR on the pCMV4-p65.
For transient transfections, cells were seeded in 6-well plates (2.10^5 cells/well). After two or three days the cells were transfected with reporter, expression vectors and β-galactosidase control vector. Two different experimental settings were used. For testing transrepression of IL-1β induced promoter activity, cells were transfected with 1 μg reporter construct, 1 μg expression vector (containing either ERα, ERβ or GR), and 0.25 μg of β-galactosidase control plasmid.

Regarding “IL-1: cytokine used to induce NF-κB responsive reporter activity”, in the experiment with ERα [1], the “luciferase activity, ELAM-HMG clone 2B8” value is 8410; the “luciferase activity, ELAM-HMG clone 2F4” value is listed as 1566; the “luciferase activity, VCAM3 clone 3A10” value was 3907; the “luciferase activity, VCAM3 clone 4B6” value was 2122. Besides, in the experiment with ERα [2], the “luciferase activity, ELAM1a reporter” value is 1818 cps; the “luciferase activity, ELAM2 reporter” value came to 39383 cps; the “luciferase activity, ELAM− reporter” value was found to be 160167 cps; the “luciferase activity, VCAM1-2 reporter” value is reported as 3741 cps. In addition, in the experiment with ERα [2], the “luciferase activity, VCAM2 reporter” value is on record as 19464 cps; the “luciferase activity, VCAM3 reporter” value amounted to 22767 cps; the “luciferase activity, VCAM reporter” value is 3099 cps. Moreover, in the experiment with ERα [3], the “luciferase activity, 3*NFkB-reporter” value was 1836839; the “luciferase activity, ELAM+ reporter” value is listed as 99757; the “luciferase activity, ICAM reporter” value is on record as 908172; the “luciferase activity, VCAM reporter” value worked out at 30296.

These data come from US20060051295A1, “Estrogen receptor interaction with a transcription factor” (priority 2002, published 2006).
